US20120164140A1

What was measured:
Experiment in all cases: cell-based or functional assay
BMP-2 (unlabeled) = molecular target: T1, BMP-2 (unlabeled) (UniProt P12643)
T1 sequence (looked up): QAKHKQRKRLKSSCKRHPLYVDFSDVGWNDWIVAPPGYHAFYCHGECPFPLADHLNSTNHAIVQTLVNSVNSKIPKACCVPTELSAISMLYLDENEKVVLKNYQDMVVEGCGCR

BMP-6 = BMP-6 (UniProt P22004)
BMP-5 = BMP-5 (UniProt P22003)
BMP-4 (unlabeled) = molecular target: T2, BMP-4 (unlabeled) (UniProt P12644)
T2 sequence (looked up): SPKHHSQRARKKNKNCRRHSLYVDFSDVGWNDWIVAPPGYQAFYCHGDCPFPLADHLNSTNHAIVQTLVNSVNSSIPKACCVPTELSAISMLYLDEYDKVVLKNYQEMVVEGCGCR

Measured: decrease in hepcidin promoter activation (luciferase reporter, Hep3B cells)

Chain of UniProt P22003 (P22003 317-454 limits assumed): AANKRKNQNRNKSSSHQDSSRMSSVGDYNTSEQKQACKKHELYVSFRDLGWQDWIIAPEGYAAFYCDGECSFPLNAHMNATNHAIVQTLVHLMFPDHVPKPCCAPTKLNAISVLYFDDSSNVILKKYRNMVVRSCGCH
Chain of UniProt P22004 (P22004 382-513 limits assumed): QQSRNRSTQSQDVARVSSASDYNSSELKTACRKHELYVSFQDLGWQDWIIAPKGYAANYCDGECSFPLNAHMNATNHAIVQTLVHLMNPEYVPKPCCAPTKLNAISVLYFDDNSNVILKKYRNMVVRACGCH

purified soluble human hemojuvelin fused to the Fc portion of immunoglobulin (HJV.Fc) (Fc fusion)
> 90%: all assays above
